Measured values published in article PMC4196948.
Where “and” joins values, the source holds several entries; their conditions need not be identical. Identical values can stand only once.

How the values were obtained:
[1] = target: wild type tcSOD (hyperthermostable Fe-superoxide dismutase from Tengchong hot springs) (not stated (metagenomic library of hot springs in Tengchong, China)); assay: native gel or EMSA; 10% native-PAGE (also 5-15% gradient native-PAGE), 20 mM PBS pH 7.4, 0.1-1.0 mg/ml (mutants 1 mg/ml); the predominant oligomer (quaternary structure)
[2] = target: wild type tcSOD (hyperthermostable Fe-superoxide dismutase from Tengchong hot springs) (not stated (metagenomic library of hot springs in Tengchong, China)); assay: SEC; Superdex 200HR 10/30, 20 mM sodium phosphate pH 7.4, 25°C, 0.5 ml/min; protein 0.1 to 1.0 mg/ml, not cross-linked
[3] = target: wild type tcSOD (hyperthermostable Fe-superoxide dismutase from Tengchong hot springs) (not stated (metagenomic library of hot springs in Tengchong, China)); assay: native gel or EMSA; tetramers and high-order oligomers separated by ion exchange (Resource Q), concentrated to 0.3 mg/ml, heated at 80°C or 95°C, then 10% native-PAGE; step: tetramers to octamers
[4] = target: wild type tcSOD (hyperthermostable Fe-superoxide dismutase from Tengchong hot springs) (not stated (metagenomic library of hot springs in Tengchong, China)); assay: native gel or EMSA; 10% native-PAGE (also 5-15% gradient), 20 mM PBS pH 7.4, 0.1-1.0 mg/ml (mutants 1 mg/ml), bands quantified by GIS software; step: tetramers to high-order oligomers; fractions almost unchanged with 0-5 M NaCl, pH 3-11 or 80°C for 60 min
[5] = target: wild type tcSOD (hyperthermostable Fe-superoxide dismutase from Tengchong hot springs) (not stated (metagenomic library of hot springs in Tengchong, China)); assay: cross-linking; 0.5 mM DSP for 10 min after 50 min at the given temperature, without DTT; read by SDS-PAGE and native-PAGE
[6] = target: wild type tcSOD (hyperthermostable Fe-superoxide dismutase from Tengchong hot springs) (not stated (metagenomic library of hot springs in Tengchong, China)); assay: cross-linking; glutaraldehyde, 20 mM sodium phosphate pH 7.4, after heating at 25°C or 80°C for 50 min, cross-linked 1 or 5 min; read by 12.5% SDS-PAGE
[7] = target: tcSOD truncation mutant M202 (residues 1-201) (not stated (metagenomic library of hot springs in Tengchong, China)); assay: as above

Row | stoichiometry N [1] | stoichiometry N [2] | stoichiometry N [3] | fraction of high-order oligomers (at 0.1 mg/ml) [4] | fraction of high-order oligomers (at 1.0 mg/ml) [4] | stoichiometry N [4] | stoichiometry N [5] | stoichiometry N [6] | stoichiometry N [7] | Substance
1 | 4 | 4 | 8 | 1.5% | 5% | > 8 | 2 | 4 and 2 | – | wild type tcSOD (hyperthermostable Fe-superoxide dismutase from Tengchong hot springs) (enzyme)
2 | – | – | – | – | – | – | – | – | 4 and 2 | tcSOD truncation mutant M202 (residues 1-201) (domain or fragment)
